Reference: paper PMC12443421
Where two headings read alike, the source gives them in different places. One block for each substance: values may come before it.

How the values were obtained:
[1] = target: KDM5A^CAT (lysine demethylase 5A, residues 1-801) (UniProt P29375); assay: EMSA
[2] = target: acidic patch mutant (APM) unmodified 147 bp nucleosome (H2A E61A, E64S, N68A, D72S, N89A, D90A, E91S), P62807;Q71DI3;P62805; assay: EMSA
[3] = target: acidic patch mutant (APM) H3K4me3 147 bp nucleosome (human) (UniProt P62807)
[4] = target: acidic patch mutant (APM) H3K4me3 147 bp nucleosome (human) (UniProt P62807); assay: native gel or EMSA; direct binding: 100 nM nucleosome and varying KDM5A; 50 mM HEPES pH 7.5, 50 mM KCl, 1 mM BME, 0.01% Tween-20, 0.01% BSA, 5% sucrose; 1 h on ice; gel at 4 C; SYBR gold; fit to specific binding with Hill slope
[5] = target: acidic patch mutant (APM) unmodified 147 bp nucleosome (H2A E61A, E64S, N68A, D72S, N89A, D90A, E91S) (human) (UniProt P62807); assay: as above

Chain of KDM5A^CAT (lysine demethylase 5A, residues 1-801) (from UniProt P29375 1-801) (domain or fragment) (P29375 1-801): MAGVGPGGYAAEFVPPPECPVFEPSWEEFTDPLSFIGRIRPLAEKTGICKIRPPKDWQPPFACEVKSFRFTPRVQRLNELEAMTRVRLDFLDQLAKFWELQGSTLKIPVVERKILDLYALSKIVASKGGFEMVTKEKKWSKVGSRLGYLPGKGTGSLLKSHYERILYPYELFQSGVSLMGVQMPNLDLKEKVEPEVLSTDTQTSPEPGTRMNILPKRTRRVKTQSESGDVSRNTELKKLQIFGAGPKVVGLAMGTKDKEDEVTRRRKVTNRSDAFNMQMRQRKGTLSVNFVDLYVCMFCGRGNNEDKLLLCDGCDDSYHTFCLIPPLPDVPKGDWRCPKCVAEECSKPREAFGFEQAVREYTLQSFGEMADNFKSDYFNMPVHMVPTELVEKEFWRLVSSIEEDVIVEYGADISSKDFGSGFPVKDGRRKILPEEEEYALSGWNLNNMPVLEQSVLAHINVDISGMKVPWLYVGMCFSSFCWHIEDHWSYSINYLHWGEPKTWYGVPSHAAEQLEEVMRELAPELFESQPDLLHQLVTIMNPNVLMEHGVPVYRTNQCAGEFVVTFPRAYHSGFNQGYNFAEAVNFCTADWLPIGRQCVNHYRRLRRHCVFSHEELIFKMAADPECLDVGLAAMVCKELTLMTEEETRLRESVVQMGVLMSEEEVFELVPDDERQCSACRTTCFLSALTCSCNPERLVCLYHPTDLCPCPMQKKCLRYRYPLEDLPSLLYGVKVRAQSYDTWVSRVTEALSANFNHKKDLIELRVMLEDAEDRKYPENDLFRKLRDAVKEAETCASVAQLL

Kd [1]: 12 µM
Substance: wild-type unmodified 147 bp nucleosome (nucleosome core particle) (from UniProt P04908;P62807;Q71DI3;P62805) H2A:E61A; H2A:E64S; H2A:N68A; H2A:D72S; H2A:N89A; H2A:D90A; H2A:E91S

Kd [2]: 10.1 µM
Substance: KDM5A^CAT (lysine demethylase 5A, residues 1-801) (from UniProt P29375) R264A; R265A; R266A; R271A

fold decrease in demethylation of H3K4me3 on APM 147 bp nucleosomes relative to wild-type nucleosomes, quantitative western blot, single turnover (5 uM KDM5A enzyme, 50 nM substrate, 50 mM KCl) [3]: 9 fold
fold lower affinity relative to the wild-type H3K4me3 nucleosome [4]: 4 fold
fold loss in affinity relative to the wild-type 147 bp nucleosome [5]: 3 fold
Substance: KDM5A^CAT (lysine demethylase 5A, residues 1-801) (from UniProt P29375 1-801) (domain or fragment)

Kd [2]: 15 µM
Substance: KDM5A^CAT (lysine demethylase 5A, residues 1-801) (from UniProt P29375) R217A; R219A; R220A

Kd [2]: 14 µM
Kd ([2]; 0-32 µM KDM5A^MutR titration): 14 µM
Substance: KDM5A^CAT (lysine demethylase 5A, residues 1-801) (from UniProt P29375) R210A; R217A; R219A; R220A; R232A; R264A; R265A; R266A; R271A; R280A; R282A

Kd [2]: 12 µM
Substance: KDM5A^CAT (lysine demethylase 5A, residues 1-801) (from UniProt P29375) R280A; R282A
